Results as given in the supplement of paper PMC7877785.
± gives the uncertainty stated by the source.

Assay: self-splicing fitness, log relative to wild type (ln ratio); higher = more splicing; Tetrahymena group I intron in knt gene, E. coli kanamycin selection, DiMSum; sequences stand for … in CUCUCU…GGAGGGAAAAGUUAUCAGGCAUGCACCUGGUAGCUAGUCUUUAAACCAAUAGAUUGCAUCGGUUUAAAAGGCAAGACCGUCAAAUUGCGGGAAAGGGGUCAACAGCCGUUCAGUACCAAGUCUCAGGGGAAACUUUGAGAUGGCCUUGCAAAGGGUAUGGUAAUAAGCUGACGGACAUGGUCCUAACCACGCAGCCAAGUCCUAAGUCAACAGAUCUUCUGUUGAUAUGGAUGCAGUUCACAGACUAAAUGUCGGUCGGGGAAGAUGUAUUCUUCUCAUAAGAUAUAGUCGGACCUCUCCUUAAUGGGAGCUAGCGGAUGAAGUGAUGCAACACUGGAGCCGCUGGGAACUAAUUUGUAUGCGAAAGUAUAUUGAUUAGUUUUGGAGUACUCGUGGUCG
Method in brief: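 Fitness was computed with DiMSum as the error-weighted combination of replicate fold changes, kanamycin versus none, each normalised to wild type. The library randomised all eight intron nucleotides of the P1ex region, with the intron placed in the knt kanamycin-resistance gene on pET-22b(+) in E. coli BL21(DE3). Six replicate transformations were grown overnight at 37°C or 30°C on LB agar with or without 25 μg/mL kanamycin, plus 100 μg/mL carbenicillin, 50 μM IPTG and 0.2% rhamnose. Pooled colonies were amplicon-sequenced on an Illumina HiSeq 2500.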

Sequence | self-splicing fitness (ln) (30 °C) | self-splicing fitness (ln) (37 °C)
AAUAAGCAAUAUUACGGCGC | 0.251 ± 0.12 | -0.478 ± 0.13
CCACAGCAAUAUUACGACAG | -1.06 ± 0.083 | -0.0398 ± 0.088
UCUGAGCAAUAUUACGGUCU | -2.46 ± 0.21 | -2.96 ± 0.37
UGUUAGCAAUAUUACGGUUU | -2.82 ± 0.15 | -2.02 ± 0.15
CCUUAGCAAUAUUACGGCCA | -3.46 ± 0.41 | -1.69 ± 0.18
GGCUAGCAAUAUUACGUCCC |  | -0.484 ± 0.43
CAGUAGCAAUAUUACGAAUA | -4.27 ± 0.43 | -1.71 ± 0.2
UCGGAGCAAUAUUACGAAGU |  | -0.529 ± 0.24
UCAUAGCAAUAUUACGAUUA | -0.984 ± 0.17 | -0.81 ± 0.25
GACGAGCAAUAUUACGAGCG | -1.88 ± 0.23 | 
AUCAAGCAAUAUUACGUAUA | -2.76 ± 0.23 | -2.31 ± 0.19
AUGCAGCAAUAUUACGAAAU | -2.02 ± 0.13 | -0.358 ± 0.11
AAGCAGCAAUAUUACGCGUU | -2.2 ± 0.1 | -1.99 ± 0.11
GCAGAGCAAUAUUACGGCUG | -2.42 ± 0.25 | 
UGCCAGCAAUAUUACGGCAU | -2.48 ± 0.15 | -3.23 ± 0.26
UUUGAGCAAUAUUACGCUAG | -2.68 ± 0.37 | -1.33 ± 0.23
AGACAGCAAUAUUACGCGUG | -1.91 ± 0.075 | -0.597 ± 0.086
GAAAAGCAAUAUUACGGGGC | -2.89 ± 0.16 | -3.46 ± 0.37
AUAUAGCAAUAUUACGCGUG | -1.1 ± 0.12 | -0.528 ± 0.14
UAGUAGCAAUAUUACGAACC |  | -2.97 ± 0.33
UUCUAGCAAUAUUACGGUCG | -0.638 ± 0.067 | 0.00892 ± 0.09
UUAGAGCAAUAUUACGCACG | -0.444 ± 0.17 | -0.183 ± 0.18
UUUAAGCAAUAUUACGGGUG | -1.2 ± 0.13 | -0.234 ± 0.12
GAGAAGCAAUAUUACGUCUG | -0.739 ± 0.13 | 0.277 ± 0.15
AACGAGCAAUAUUACGUGUG | -3.18 ± 0.13 | -2.57 ± 0.14
UGAAAGCAAUAUUACGUAUA | -1.56 ± 0.13 | -1.28 ± 0.12

Sequence | self-splicing fitness (ln) (30 °C) | self-splicing fitness (ln) (37 °C)
UGUCAGCAAUAUUACGUUAU | -3.1 ± 0.12 | -1.77 ± 0.11
AGCAAGCAAUAUUACGCUGG | -4.34 ± 0.41 | -2.95 ± 0.26
GCUAAGCAAUAUUACGUACU | -0.353 ± 0.051 | -0.348 ± 0.068
UGGAAGCAAUAUUACGAUCU | -0.0165 ± 0.12 | -0.454 ± 0.15
CUUGAGCAAUAUUACGAGCG | -2.14 ± 0.1 | -0.889 ± 0.09
AUAUAGCAAUAUUACGUCGA | -2.07 ± 0.17 | -1.51 ± 0.2
GAUCAGCAAUAUUACGCACU | 0.181 ± 0.092 | 0.467 ± 0.1
ACUCAGCAAUAUUACGAUCC | -3.06 ± 0.37 | 
GACGAGCAAUAUUACGAACA | -0.347 ± 0.3 | -1.44 ± 0.3
GGAAAGCAAUAUUACGGUGA | -1.01 ± 0.15 | -0.6 ± 0.16
GCCGAGCAAUAUUACGGAUC | -0.703 ± 0.074 | -0.376 ± 0.11
GUUGAGCAAUAUUACGUAGC | -0.983 ± 0.2 | -2.07 ± 0.35
AUGGAGCAAUAUUACGCGCA | -1.66 ± 0.28 | -0.77 ± 0.23
UGAAAGCAAUAUUACGUACC | -1.36 ± 0.12 | -1.61 ± 0.17
CGUAAGCAAUAUUACGCACA | -1.37 ± 0.18 | -0.0497 ± 0.23
UUGUAGCAAUAUUACGUCCA | -0.4 ± 0.13 | -0.28 ± 0.14
GGCCAGCAAUAUUACGUAAU | -0.304 ± 0.098 | -0.62 ± 0.098
UUGUAGCAAUAUUACGGCUU | -1.41 ± 0.12 | 0.113 ± 0.14
AUUUAGCAAUAUUACGUCAG | -3.7 ± 0.28 | -0.451 ± 0.2
GGUGAGCAAUAUUACGGUGC | -2.09 ± 0.14 | -0.734 ± 0.2
CAAAAGCAAUAUUACGUUCC | -2.34 ± 0.33 | -2.17 ± 0.36
GAAUAGCAAUAUUACGAAUG | -1.42 ± 0.24 | -1.15 ± 0.28
AAAAAGCAAUAUUACGCCCG | -0.481 ± 0.16 | 0.243 ± 0.23
AAACAGCAAUAUUACGGAUG | -3.43 ± 0.16 | -3 ± 0.2
CUCUAGCAAUAUUACGGAUC | -3.4 ± 0.21 | -3.33 ± 0.33
UCUCAGCAAUAUUACGUCCG | -2.5 ± 0.28 | -2.26 ± 0.41

Sequence | self-splicing fitness (ln) (30 °C) | self-splicing fitness (ln) (37 °C)
GCUGAGCAAUAUUACGGUAU | -2.63 ± 0.2 | -2.41 ± 0.2
ACGGAGCAAUAUUACGACGG | -1.46 ± 0.1 | 0.14 ± 0.12
UACUAGCAAUAUUACGUUCU | -2.47 ± 0.25 | -1.03 ± 0.19
UGUCAGCAAUAUUACGCGUA | -0.0687 ± 0.063 | 0.148 ± 0.073
GCCUAGCAAUAUUACGUGAC | -1.12 ± 0.17 | 0.101 ± 0.17
AUACAGCAAUAUUACGCUGA | -2.14 ± 0.099 | -0.86 ± 0.1
GAACAGCAAUAUUACGUGAC | -1.63 ± 0.11 | -0.482 ± 0.15
CUGUAGCAAUAUUACGGUUU | -4.11 ± 0.26 | -2.69 ± 0.32
AUAGAGCAAUAUUACGGGUU | -2.43 ± 0.16 | -1.1 ± 0.17
GCACAGCAAUAUUACGUUUG | -1.62 ± 0.066 | -1.08 ± 0.089
UCACAGCAAUAUUACGACUU | -3.28 ± 0.2 | -1.65 ± 0.12
CCAGAGCAAUAUUACGUUGA | -2.69 ± 0.22 | -3.35 ± 0.24
UAAAAGCAAUAUUACGCCUC | -2.82 ± 0.43 | 
CGAUAGCAAUAUUACGGAAC | -2.5 ± 0.2 | -2.68 ± 0.25
GACCAGCAAUAUUACGGAAG | -1.42 ± 0.08 | -0.75 ± 0.088
AACCAGCAAUAUUACGCAUG | -1.7 ± 0.082 | -0.971 ± 0.083
AAUGAGCAAUAUUACGAGGC |  | -3.11 ± 0.4
GUGUAGCAAUAUUACGGUAU | -2.35 ± 0.12 | -0.18 ± 0.12
AGUAAGCAAUAUUACGAUAU | -1.95 ± 0.13 | -0.493 ± 0.15
CUUAAGCAAUAUUACGUAAC | -3.05 ± 0.24 | -1.26 ± 0.2
GGACAGCAAUAUUACGUUGC | -4.57 ± 0.24 | -2.83 ± 0.18
GAAAAGCAAUAUUACGCUCG | -0.762 ± 0.11 | -0.303 ± 0.15
AGACAGCAAUAUUACGGUUA | -0.253 ± 0.082 | -0.109 ± 0.079
AAUUAGCAAUAUUACGUUAU | -2.88 ± 0.18 | -1.11 ± 0.12
CAGCAGCAAUAUUACGAAUC | -2.38 ± 0.27 | -2.33 ± 0.4
